Source: patent US20240270846A1 (published 2024)

Molecular target: T1, CD3 epsilon homodimer protein (UniProt P07766 23-126)
T1 construct: Construct of the homodimer is not described; also called CD3 (CD3 epsilon)
Experiment: SPR Biacore T200, CD3e homodimer on chip, antibody analyte;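 further: CD3 epsilon homodimer amine-coupled on CM4 sensor chip, antibodies injected as analyte at 25 °C in HBS-EP+, ratio ≥0.8 taken as binding retained versus unaltered parent antibody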

T1 sequence (P07766 23-126): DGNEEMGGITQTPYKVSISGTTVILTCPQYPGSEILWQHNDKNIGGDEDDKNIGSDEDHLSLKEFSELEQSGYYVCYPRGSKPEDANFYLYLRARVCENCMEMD

| Binder | ratio of amounts bound (altered form/GLS3000) |
| --- | --- |
| GLS3000 N53T one-arm antibody (antibody, human IgG1, kappa, L234A L235A, N297A, name in Kabat numbering) light: DIVMTQSPLSLPVTPGEPASISCRSSQSLVHSNRNTYLHWYQQKPGQAPRLLIYKVSTRFSGVPDRFSGSGSGTDFTLKISRVEAEDVGVYYCGQGTQVPYTFGQGTKLEIKRTVAAPSVFIFPPSDEQLKSGTASVVCLLNNFYPREAKVQWKVDNALQSGNSQESVTEQDSKDSTYSLSSTLTLSKADYEKHKVYACEVTHQGLSSPVTKSFNRGEC heavy: QVQLVESGGGVVQPGRSLRLSCAASGFTFSNAWMHWVRQAPGKGLEWVAQIKAKSNNYATYYAESVKGRFTISRDDSKNSLYLQMNSLKTEDTAVYYCRYVHYGAYYGVDAWGQGTTVTVSSASTKGPSVFPLAPSSKSTSGGTAALGCLVKDYFPEPVTVSWNSGALTSGVHTFPAVLQSSGLYSLSSVVTVPSSSLGTQTYICNVNHKPSNTKVDKKVEPKSCDKTHTCPPCPAPEAAGGPSVFLFPPKPKDTLMISRTPEVTCVVVDVSHEDPEVKFNWYVDGVEVHNAKTKPREEQYASTYRVVSVLTVLHQDWLNGKEYKCKVSNKALPAPIEKTISKAKGQPREPQVYTLPPSRCELTKNQVSLSCAVKGFYPSDIAVEWESNGQPENNYKTTPPVLDSDGSFFLVSKLTVDKSRWQQGNVFSCSVMHEALHNHYTQKSLSLSPDYKDDDDK EPKSSDKTHTCPPCPAPELLGGPSVFLFPPKPKDTLMISRTPEVTCVVVDVSHEDPEVKFNWYVDGVEVHNAKTKPREEQYNSTYRVVSVLTVLHQDWLNGKEYKCKVSNKALPAPIEKTISKAKGQPREPQVCTLPPSRDELTKNQVSLWCLVKGFYPSDIAVEWESNGQPENNYKTTPPVLDSDGSFFLYSKLTVDKSRWQQGNVFSCSVMHEALHNRYTQKSLSLSP | 0.56 |
| GLS3000 N53V one-arm antibody (antibody, human IgG1, kappa, L234A L235A, N297A, name in Kabat numbering) light: DIVMTQSPLSLPVTPGEPASISCRSSQSLVHSNRNTYLHWYQQKPGQAPRLLIYKVSVRFSGVPDRFSGSGSGTDFTLKISRVEAEDVGVYYCGQGTQVPYTFGQGTKLEIKRTVAAPSVFIFPPSDEQLKSGTASVVCLLNNFYPREAKVQWKVDNALQSGNSQESVTEQDSKDSTYSLSSTLTLSKADYEKHKVYACEVTHQGLSSPVTKSFNRGEC heavy: QVQLVESGGGVVQPGRSLRLSCAASGFTFSNAWMHWVRQAPGKGLEWVAQIKAKSNNYATYYAESVKGRFTISRDDSKNSLYLQMNSLKTEDTAVYYCRYVHYGAYYGVDAWGQGTTVTVSSASTKGPSVFPLAPSSKSTSGGTAALGCLVKDYFPEPVTVSWNSGALTSGVHTFPAVLQSSGLYSLSSVVTVPSSSLGTQTYICNVNHKPSNTKVDKKVEPKSCDKTHTCPPCPAPEAAGGPSVFLFPPKPKDTLMISRTPEVTCVVVDVSHEDPEVKFNWYVDGVEVHNAKTKPREEQYASTYRVVSVLTVLHQDWLNGKEYKCKVSNKALPAPIEKTISKAKGQPREPQVYTLPPSRCELTKNQVSLSCAVKGFYPSDIAVEWESNGQPENNYKTTPPVLDSDGSFFLVSKLTVDKSRWQQGNVFSCSVMHEALHNHYTQKSLSLSPDYKDDDDK EPKSSDKTHTCPPCPAPELLGGPSVFLFPPKPKDTLMISRTPEVTCVVVDVSHEDPEVKFNWYVDGVEVHNAKTKPREEQYNSTYRVVSVLTVLHQDWLNGKEYKCKVSNKALPAPIEKTISKAKGQPREPQVCTLPPSRDELTKNQVSLWCLVKGFYPSDIAVEWESNGQPENNYKTTPPVLDSDGSFFLYSKLTVDKSRWQQGNVFSCSVMHEALHNRYTQKSLSLSP | 0.56 |
| GLS3000 N53Y one-arm antibody (antibody, human IgG1, kappa, L234A L235A, N297A, name in Kabat numbering) light: DIVMTQSPLSLPVTPGEPASISCRSSQSLVHSNRNTYLHWYQQKPGQAPRLLIYKVSYRFSGVPDRFSGSGSGTDFTLKISRVEAEDVGVYYCGQGTQVPYTFGQGTKLEIKRTVAAPSVFIFPPSDEQLKSGTASVVCLLNNFYPREAKVQWKVDNALQSGNSQESVTEQDSKDSTYSLSSTLTLSKADYEKHKVYACEVTHQGLSSPVTKSFNRGEC heavy: QVQLVESGGGVVQPGRSLRLSCAASGFTFSNAWMHWVRQAPGKGLEWVAQIKAKSNNYATYYAESVKGRFTISRDDSKNSLYLQMNSLKTEDTAVYYCRYVHYGAYYGVDAWGQGTTVTVSSASTKGPSVFPLAPSSKSTSGGTAALGCLVKDYFPEPVTVSWNSGALTSGVHTFPAVLQSSGLYSLSSVVTVPSSSLGTQTYICNVNHKPSNTKVDKKVEPKSCDKTHTCPPCPAPEAAGGPSVFLFPPKPKDTLMISRTPEVTCVVVDVSHEDPEVKFNWYVDGVEVHNAKTKPREEQYASTYRVVSVLTVLHQDWLNGKEYKCKVSNKALPAPIEKTISKAKGQPREPQVYTLPPSRCELTKNQVSLSCAVKGFYPSDIAVEWESNGQPENNYKTTPPVLDSDGSFFLVSKLTVDKSRWQQGNVFSCSVMHEALHNHYTQKSLSLSPDYKDDDDK EPKSSDKTHTCPPCPAPELLGGPSVFLFPPKPKDTLMISRTPEVTCVVVDVSHEDPEVKFNWYVDGVEVHNAKTKPREEQYNSTYRVVSVLTVLHQDWLNGKEYKCKVSNKALPAPIEKTISKAKGQPREPQVCTLPPSRDELTKNQVSLWCLVKGFYPSDIAVEWESNGQPENNYKTTPPVLDSDGSFFLYSKLTVDKSRWQQGNVFSCSVMHEALHNRYTQKSLSLSP | 0.67 |
| GLS3000 N53W one-arm antibody (antibody, human IgG1, kappa, L234A L235A, N297A, name in Kabat numbering) light: DIVMTQSPLSLPVTPGEPASISCRSSQSLVHSNRNTYLHWYQQKPGQAPRLLIYKVSWRFSGVPDRFSGSGSGTDFTLKISRVEAEDVGVYYCGQGTQVPYTFGQGTKLEIKRTVAAPSVFIFPPSDEQLKSGTASVVCLLNNFYPREAKVQWKVDNALQSGNSQESVTEQDSKDSTYSLSSTLTLSKADYEKHKVYACEVTHQGLSSPVTKSFNRGEC heavy: QVQLVESGGGVVQPGRSLRLSCAASGFTFSNAWMHWVRQAPGKGLEWVAQIKAKSNNYATYYAESVKGRFTISRDDSKNSLYLQMNSLKTEDTAVYYCRYVHYGAYYGVDAWGQGTTVTVSSASTKGPSVFPLAPSSKSTSGGTAALGCLVKDYFPEPVTVSWNSGALTSGVHTFPAVLQSSGLYSLSSVVTVPSSSLGTQTYICNVNHKPSNTKVDKKVEPKSCDKTHTCPPCPAPEAAGGPSVFLFPPKPKDTLMISRTPEVTCVVVDVSHEDPEVKFNWYVDGVEVHNAKTKPREEQYASTYRVVSVLTVLHQDWLNGKEYKCKVSNKALPAPIEKTISKAKGQPREPQVYTLPPSRCELTKNQVSLSCAVKGFYPSDIAVEWESNGQPENNYKTTPPVLDSDGSFFLVSKLTVDKSRWQQGNVFSCSVMHEALHNHYTQKSLSLSPDYKDDDDK EPKSSDKTHTCPPCPAPELLGGPSVFLFPPKPKDTLMISRTPEVTCVVVDVSHEDPEVKFNWYVDGVEVHNAKTKPREEQYNSTYRVVSVLTVLHQDWLNGKEYKCKVSNKALPAPIEKTISKAKGQPREPQVCTLPPSRDELTKNQVSLWCLVKGFYPSDIAVEWESNGQPENNYKTTPPVLDSDGSFFLYSKLTVDKSRWQQGNVFSCSVMHEALHNRYTQKSLSLSP | 0.81 |
